Laboratory results from publication PMC4671672.

Assays:
[1] = target: FLAG-NKX2-5 (mouse NKX2-5, pEF-FLAG-NKX2-5) (mouse) (UniProt P42582)
[2] = target: FLAG-NKX2-5 (mouse NKX2-5, pEF-FLAG-NKX2-5) (mouse) (UniProt P42582); assay: co-IP; protein extracts of COS-1 cells expressing FLAG-NKX2-5 (50 ug) and of COS-1 cells expressing GATA4 (30-84 ug) mixed; agarose bound anti-FLAG M2 antibody, overnight at +4°C in lysis buffer (20 mM Tris pH 7.5, 150 mM NaCl, 1 mM EDTA, 1 mM EGTA, 1% Triton X-100, 2.5 mM sodium pyrophosphate); immunoblot with anti-GATA4 and anti-NKX2-5; bands quantified, unspecific binding subtracted, normalized to input and to …

Sequence of UniProt P42582 (P42582 whole entry): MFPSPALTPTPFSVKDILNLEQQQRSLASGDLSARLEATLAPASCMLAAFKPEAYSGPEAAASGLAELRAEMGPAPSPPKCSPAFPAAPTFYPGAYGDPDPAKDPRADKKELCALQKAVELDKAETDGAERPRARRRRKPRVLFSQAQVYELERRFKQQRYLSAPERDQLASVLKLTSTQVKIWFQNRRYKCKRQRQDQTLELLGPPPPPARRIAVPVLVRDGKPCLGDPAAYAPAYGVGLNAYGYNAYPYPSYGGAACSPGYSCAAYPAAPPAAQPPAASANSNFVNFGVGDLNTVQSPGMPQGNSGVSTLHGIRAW

Row | percent decrease of binding vs wtGATA4 [2] [%] | Substance | further results
1 |  | mouse GATA4 N272D (natural protein) | GATA4-NKX2-5 transcriptional synergy, 3xNKE luciferase reporter, COS-1 cells; reduction vs wtGATA4 [1]: 79%
2 |  | mouse GATA4 V217Y (natural protein) | GATA4-NKX2-5 transcriptional synergy, 3xNKE luciferase reporter, COS-1 cells; vs wtGATA4-NKX2-5 [1]: 146%; percent increase of binding vs wtGATA4 [2]: 235%
3 | 91 | mouse GATA4 R283Q (natural protein) | 
4 | 84 | mouse GATA4 R283A (natural protein) | 
5 | 36 | mouse GATA4 R264A (natural protein) | 
6 | 61 | mouse GATA4 K299A (natural protein) | 
7 | 47 | mouse GATA4 Q274H (natural protein) | 
8 | 62 | mouse GATA4 M298Y (natural protein) | 
9 |  | mouse GATA4 N272S (natural protein) | GATA4-NKX2-5 transcriptional synergy, 3xNKE luciferase reporter, COS-1 cells; reduction vs wtGATA4 [1]: 65%
10 | 89 | mouse GATA4 R319C (natural protein) | 
